This experiment concerns the target T1, human oxMIF (oxidized macrophage migration inhibitory factor) (human, UniProt P14174 2-115, oxidized isoform: made by mild oxidation (cystine, GSSG) or by 0.2% Proclin300 or protein crosslinkers (e.g. BMOE); the modified residues are not stated).
T1 construct: mature; a conformational/redox isoform; also called oxidized MIF; recombinant human oxMIF
Briefly: sandwich ELISA, plate coated with RAM0, human EDTA plasma; calibrated with recombinant human MIF in 0.2% ProClin300.

T1 sequence (P14174 2-115): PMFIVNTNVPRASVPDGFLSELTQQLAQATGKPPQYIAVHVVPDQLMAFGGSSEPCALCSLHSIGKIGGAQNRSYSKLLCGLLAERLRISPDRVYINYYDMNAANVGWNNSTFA

B1: human anti-MIF monoclonal antibody RAM0 (antibody, human IgG1, kappa, V domains shown)
VH: EVQLLESGGGLVQPGGSLRLSCAASGFTFSWYAMDWVRQAPGKGLEWVSGIYPSGGRTKYADSVKGRFTISRDNSKNTLYLQMNSLRAEDTAVYYCARVNVIAVAGTGYYYYGMDVWGQGTTVTVSS
VL: DIQMTQSPGTLSLSPGERATLSCRASQGVSSSSLAWYQQKPGQAPRLLIYGTSSRATGIPDRFSGSASGTDFTLTISRLQPEDFAVYYCQQYGRSLTFGGGTKVEIKR
notes: Deposits DSM 25864 and DSM 25863
B1: the binding result is given as “binds”.
